Experimental data as given in patent publication US20150125444A1 (AstraZeneca / MedImmune, published 2015).

T1: Human FcγRIIa extracellular domain (human, UniProt P12318 34-217)
T1 construct: extracellular domain
T1 sequence (looked up): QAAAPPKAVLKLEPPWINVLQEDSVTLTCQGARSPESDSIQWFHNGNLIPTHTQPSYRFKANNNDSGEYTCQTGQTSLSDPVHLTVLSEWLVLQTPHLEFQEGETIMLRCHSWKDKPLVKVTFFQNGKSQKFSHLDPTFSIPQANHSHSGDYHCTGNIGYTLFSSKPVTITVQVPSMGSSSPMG

T2: Human FcγRIIb extracellular domain (human, UniProt P31994 43-217)
T2 construct: extracellular domain
T2 sequence (looked up): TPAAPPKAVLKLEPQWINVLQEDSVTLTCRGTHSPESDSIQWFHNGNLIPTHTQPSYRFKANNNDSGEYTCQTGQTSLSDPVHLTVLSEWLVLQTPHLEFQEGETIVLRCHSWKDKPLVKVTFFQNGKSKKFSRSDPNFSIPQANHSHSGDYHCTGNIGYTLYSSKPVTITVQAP

B1: Ab3 (anti-CD20 antibody HB20.3) with FAQ-YTE variant IgG1 Fc domain (antibody)
heavy: QVQLQQPGAELVKPGASVKMSCKASGFTFTNYNMHWLKQTPGQGLEWIGAIYPENGDTSYNQKFKGKATLTADKASSTAYMHLSSLTSEDSAVYFCARFYYYGSYYGAMDYWGQGTSVTVSSASTKGPSVFPLAPSSKSTSGGTAALGCLVKDYFPEPVTVSWNSGALTSGVHTFPAVLQSSGLYSLSSVVTVPSSSLGTQTYICNVNHKPSNTKVDKRVEPKSCDKTHTCPPCPAPEFAGGPSVFLFPPKPKDTLYITREPEVTCVVVDVSHEDPEVKFNWYVDGVEVHNAKTKPREEQYNSTYRVVSVLTVLHQDWLNGKEYKCQVSNKALPAPIEKTISKAKGQPREPQVYTLPPSREEMTKNQVSLTCLVKGFYPSDIAVEWESNGQPENNYKTTPPVLDSDGSFFLYSKLTVDKSRWQQGNVFSCSVMHEALHNHYTQKSLSLSPGK
light: DIQMTQSPASLSASVGETVTITCRASGNIHNYLAWYQQKQGKSPQLLVYNAKTLADGVPSRFSGSGSGTQFSLKINSLQPEDFGSYYCQHFWSTPWTFGGGTKLEIKRTVAAPSVFIFPPSDEQLKSGTASVVCLLNNFYPREAKVQWKVDNALQSGNSQESVTEQDSKDSTYSLSSTLTLSKADYEKHKVYACEVTHQGLSSPVTKSFNRGEC
notes: Full IgG1; also called Ab3 FAQ-YTE; YTE-FAQ
B2: Ab3 (anti-CD20 antibody HB20.3) with FQG-YTE variant IgG1 Fc domain (antibody)
heavy: QVQLQQPGAELVKPGASVKMSCKASGFTFTNYNMHWLKQTPGQGLEWIGAIYPENGDTSYNQKFKGKATLTADKASSTAYMHLSSLTSEDSAVYFCARFYYYGSYYGAMDYWGQGTSVTVSSASTKGPSVFPLAPSSKSTSGGTAALGCLVKDYFPEPVTVSWNSGALTSGVHTFPAVLQSSGLYSLSSVVTVPSSSLGTQTYICNVNHKPSNTKVDKRVEPKSCDKTHTCPPCPAPEFQGGPSVFLFPPKPKDTLYITREPEVTCVVVDVSHEDPEVKFNWYVDGVEVHNAKTKPREEQYNSTYRVVSVLTVLHQDWLNGKEYKCKVSNKALPAGIEKTISKAKGQPREPQVYTLPPSREEMTKNQVSLTCLVKGFYPSDIAVEWESNGQPENNYKTTPPVLDSDGSFFLYSKLTVDKSRWQQGNVFSCSVMHEALHNHYTQKSLSLSPGK
light: DIQMTQSPASLSASVGETVTITCRASGNIHNYLAWYQQKQGKSPQLLVYNAKTLADGVPSRFSGSGSGTQFSLKINSLQPEDFGSYYCQHFWSTPWTFGGGTKLEIKRTVAAPSVFIFPPSDEQLKSGTASVVCLLNNFYPREAKVQWKVDNALQSGNSQESVTEQDSKDSTYSLSSTLTLSKADYEKHKVYACEVTHQGLSSPVTKSFNRGEC
notes: Full IgG1; also called Ab3 FQG-YTE; YTE-FQG
B3: Ab3 (anti-CD20 antibody HB20.3) with FQQ-YTE variant IgG1 Fc domain (antibody)
heavy: QVQLQQPGAELVKPGASVKMSCKASGFTFTNYNMHWLKQTPGQGLEWIGAIYPENGDTSYNQKFKGKATLTADKASSTAYMHLSSLTSEDSAVYFCARFYYYGSYYGAMDYWGQGTSVTVSSASTKGPSVFPLAPSSKSTSGGTAALGCLVKDYFPEPVTVSWNSGALTSGVHTFPAVLQSSGLYSLSSVVTVPSSSLGTQTYICNVNHKPSNTKVDKRVEPKSCDKTHTCPPCPAPEFQGGPSVFLFPPKPKDTLYITREPEVTCVVVDVSHEDPEVKFNWYVDGVEVHNAKTKPREEQYNSTYRVVSVLTVLHQDWLNGKEYKCQVSNKALPAPIEKTISKAKGQPREPQVYTLPPSREEMTKNQVSLTCLVKGFYPSDIAVEWESNGQPENNYKTTPPVLDSDGSFFLYSKLTVDKSRWQQGNVFSCSVMHEALHNHYTQKSLSLSPGK
light: DIQMTQSPASLSASVGETVTITCRASGNIHNYLAWYQQKQGKSPQLLVYNAKTLADGVPSRFSGSGSGTQFSLKINSLQPEDFGSYYCQHFWSTPWTFGGGTKLEIKRTVAAPSVFIFPPSDEQLKSGTASVVCLLNNFYPREAKVQWKVDNALQSGNSQESVTEQDSKDSTYSLSSTLTLSKADYEKHKVYACEVTHQGLSSPVTKSFNRGEC
notes: Full IgG1; also called Ab3 FQQ-YTE; YTE-FQQ
B4: Ab3 (anti-CD20 antibody HB20.3) with FE-YTE variant IgG1 Fc domain (antibody)
heavy: QVQLQQPGAELVKPGASVKMSCKASGFTFTNYNMHWLKQTPGQGLEWIGAIYPENGDTSYNQKFKGKATLTADKASSTAYMHLSSLTSEDSAVYFCARFYYYGSYYGAMDYWGQGTSVTVSSASTKGPSVFPLAPSSKSTSGGTAALGCLVKDYFPEPVTVSWNSGALTSGVHTFPAVLQSSGLYSLSSVVTVPSSSLGTQTYICNVNHKPSNTKVDKRVEPKSCDKTHTCPPCPAPEFEGGPSVFLFPPKPKDTLYITREPEVTCVVVDVSHEDPEVKFNWYVDGVEVHNAKTKPREEQYNSTYRVVSVLTVLHQDWLNGKEYKCKVSNKALPAPIEKTISKAKGQPREPQVYTLPPSREEMTKNQVSLTCLVKGFYPSDIAVEWESNGQPENNYKTTPPVLDSDGSFFLYSKLTVDKSRWQQGNVFSCSVMHEALHNHYTQKSLSLSPGK
light: DIQMTQSPASLSASVGETVTITCRASGNIHNYLAWYQQKQGKSPQLLVYNAKTLADGVPSRFSGSGSGTQFSLKINSLQPEDFGSYYCQHFWSTPWTFGGGTKLEIKRTVAAPSVFIFPPSDEQLKSGTASVVCLLNNFYPREAKVQWKVDNALQSGNSQESVTEQDSKDSTYSLSSTLTLSKADYEKHKVYACEVTHQGLSSPVTKSFNRGEC
notes: Full IgG1; also called Ab3 FE-YTE; YTE-FE
B5: Ab4 (anti-C5a antibody 1B8) with FE-YTE variant IgG1 Fc domain (antibody)
heavy: EVQLLESGGGLVQPGGSLRLSCAASGFTFSSYVMNWVRQAPGKGLEWVSSISPSGGRTWYADSVKGRFTISRDNSKNTLYLQMNSLRAEDTAVYYCARSDGSAAGFLGYWGQGTLVTVSSASTKGPSVFPLAPSSKSTSGGTAALGCLVKDYFPEPVTVSWNSGALTSGVHTFPAVLQSSGLYSLSSVVTVPSSSLGTQTYICNVNHKPSNTKVDKRVEPKSCDKTHTCPPCPAPEFEGGPSVFLFPPKPKDTLYITREPEVTCVVVDVSHEDPEVKFNWYVDGVEVHNAKTKPREEQYNSTYRVVSVLTVLHQDWLNGKEYKCKVSNKALPAPIEKTISKAKGQPREPQVYTLPPSREEMTKNQVSLTCLVKGFYPSDIAVEWESNGQPENNYKTTPPVLDSDGSFFLYSKLTVDKSRWQQGNVFSCSVMHEALHNHYTQKSLSLSPGK
light: QSALTQPPSASGTPGQRVTISCSGTNSNIGSNYVFWYQQLPGTAPKLLIFESNRRPSGVPDRFSGSKSDTSASLAISGLRSEDEADYYCATWDDTLIAPVFGSGTKVTVLGQPKANPTVTLFPPSSEELQANKATLVCLISDFYPGAVTVAWKADSSPVKAGVETTTPSKQSNNKYAASSYLSLTPEQWKSHRSYSCQVTHEGSTVEKTVAPAEC
notes: Full IgG1; also called Ab4 FE-YTE

Assays:
Test in all cases: SPR (ProteOn XPR36), antibody immobilised, steady state, pH 7.4
[1] = molecular target: T1, Human FcγRIIa extracellular domain
Description: (§1) Experiments were performed using the ProteOn XPR36 surface plasmon resonance system (Bio Rad). Phosphate buffered saline with 0.005% Tween 20 (PBS/Tween), pH 7.4 was used as running buffer for most experiments with the exception of Human FcRn (extracellular domain) binding in which Phosphate buffered saline with 0.005% Tween 20 (PBS/Tween), pH 6.0 was used. All experiments were performed at 25° C. Antibodies were immobilized on a ProteOn™ GLC Sensor Chip (#176-5011) using EDAC (1-Ethyl-3-[3-dimethylaminopropyl]carbodiimide) and sulfo-NHS (N-hydroxysulfosuccinimide) to an R.U. (response unit) level of 4000-6000. C1q, FcγRI, FcγRIIa, FcγRIIb, FcγRIII(158V), FcγRIII(158F), and FcRn were then flowed over the IgG immobilized surface at various concentrations at a rate of 25 μl/minute for a long enough period of time to achieve steady state, or near steady state. Binding (if any could be determined) was quantified via steady state equilibrium binding analysis using the ProteOn software. Human FcγRI, FcγRIIa, FcγRIIb, FcγRIII(158V), FcγRIII(158F), and FcRn extracellular domains were generated via mammalian expression vectors in house. Human C1q was obtained from Quidel (CA).

[2] = molecular target: T3, Human C1q (human, UniProt P02745 23-245; P02746 28-253; P02747 29-245)
T3 construct: Bought complement protein; In the CDC assay C1q came with human serum
T3 sequence (P02745 23-245 limits assumed, chain 1 of 3): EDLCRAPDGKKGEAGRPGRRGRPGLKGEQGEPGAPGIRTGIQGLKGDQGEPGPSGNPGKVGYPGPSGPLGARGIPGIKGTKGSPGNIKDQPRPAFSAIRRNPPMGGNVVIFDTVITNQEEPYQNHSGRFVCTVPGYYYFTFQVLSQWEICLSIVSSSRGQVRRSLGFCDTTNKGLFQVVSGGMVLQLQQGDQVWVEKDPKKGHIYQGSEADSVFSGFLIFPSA
T3 sequence (P02746 28-253 limits assumed, chain 2 of 3): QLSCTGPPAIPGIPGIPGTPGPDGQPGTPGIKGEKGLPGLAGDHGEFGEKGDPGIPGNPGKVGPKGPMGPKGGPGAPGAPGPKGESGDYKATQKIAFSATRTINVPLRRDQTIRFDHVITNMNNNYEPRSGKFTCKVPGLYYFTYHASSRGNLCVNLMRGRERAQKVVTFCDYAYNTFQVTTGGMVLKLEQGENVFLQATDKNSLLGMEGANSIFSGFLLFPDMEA
T3 sequence (P02747 29-245 limits assumed, chain 3 of 3): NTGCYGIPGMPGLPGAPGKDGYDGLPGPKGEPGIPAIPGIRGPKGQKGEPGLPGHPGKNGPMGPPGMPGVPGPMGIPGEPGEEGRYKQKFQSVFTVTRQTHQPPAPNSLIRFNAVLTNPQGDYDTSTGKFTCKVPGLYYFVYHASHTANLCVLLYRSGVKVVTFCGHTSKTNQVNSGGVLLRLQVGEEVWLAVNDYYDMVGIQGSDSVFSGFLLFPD
Description: as §1

[3] = molecular target: T4, Human FcγRIIIa (158V) extracellular domain (human, UniProt P08637 17-208)
T4 construct: extracellular domain; Position 158 is the usual allotype numbering (mature protein), not the precursor numbering of the database entry; also called FcγRIII(158V)
T4 sequence (P08637 17-208 F176V): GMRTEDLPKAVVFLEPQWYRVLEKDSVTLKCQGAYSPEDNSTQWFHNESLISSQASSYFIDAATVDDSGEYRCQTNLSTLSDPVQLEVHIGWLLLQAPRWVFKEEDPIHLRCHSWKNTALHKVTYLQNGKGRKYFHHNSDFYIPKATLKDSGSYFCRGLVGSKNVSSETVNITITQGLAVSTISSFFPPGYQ
Description: as §1

[4] = molecular target: T5, Human FcγRIa extracellular domain (human, UniProt P12314 16-292)
T5 construct: extracellular domain
T5 sequence (P12314 16-292): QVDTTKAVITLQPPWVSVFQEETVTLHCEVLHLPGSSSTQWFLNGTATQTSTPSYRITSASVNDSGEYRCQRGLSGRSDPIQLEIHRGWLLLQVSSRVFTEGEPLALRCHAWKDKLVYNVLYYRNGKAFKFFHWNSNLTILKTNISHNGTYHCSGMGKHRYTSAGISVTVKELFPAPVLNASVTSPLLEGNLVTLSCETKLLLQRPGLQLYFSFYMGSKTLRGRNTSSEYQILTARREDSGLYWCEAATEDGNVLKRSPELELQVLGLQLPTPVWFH
Description: as §1

[5] = molecular target: T6, Human FcγRIIIa (158F) extracellular domain (human, UniProt P08637 17-208)
T6 construct: extracellular domain; also called FcγRIII(158F)
T6 sequence (P08637 17-208): as the sequence (P08637 17-208 F176V) above, with V160F counted along it
Description: as §1

[6] = molecular target: T2, Human FcγRIIb extracellular domain
Description: as §1

Binder	binding result [1]	binding result [2]	binding result [3]	binding result [4]	binding result [5]	binding result [6]	Kd [2]
B1	no binding	no binding	no binding	no binding	no binding	no binding	–
B2	no binding	no binding	no binding	no binding	no binding	no binding	–
B3	no binding	no binding	no binding	no binding	no binding	no binding	–
B4	–	–	–	–	–	–	360 nM
B5	–	binds	–	–	–	–	–
